Target: nominally empty recombinant adeno-associated virus 5 capsid (adeno-associated virus 5 (recombinant, rAAV5)) (UniProt Q9YIJ1)
Test: SEC-MALS; Superose 6 Increase (10/300), phosphate-buffered saline as mobile phase, 0.8 mL/min, column and detectors at 30 °C, samples kept at 4 °C before injection; RI, UV and RALS/LALS detection; whole capsid with whole capsid (dimer of capsids)

In the case of “nominally empty recombinant adeno-associated virus 5 capsid (from UniProt Q9YIJ1 1-724) (complex)”, the fraction of sample (%) in the dimer peak is reported as 7.2% and the stoichiometry N is reported as 2.

— paper PMC8074050
